B1: Feline 15H05_VH1 mouse VL (antibody, V domains shown)
VH: QVLLVQSGAEVRTPGASVKIFCKASGYSFTSYTIHWLRQAPAQGLEWMGNINPTSGYTENNQRFKDRLTLTADTSTNTAYMELSSLRSADTAMYYCARWGFKYDGEWSFDVWGAGTTVTVSS
VL: DIQMNQSPSSLSASLGDTITVTCRASQGISIWLSWYQQKPGNIPKVLINKASNLHIGVPPRFSGSGSGTHFTLTITSLQPEDIATYYCLQSQTYPLTFGGGTKLEIN
B2: Feline 15H05 1.3 (antibody, V domains shown)
VH: B1 VH
VL: EVVLTQSSAFLSRTLKEKATITCRASQGISIWLSWYQQKPNQAPKLLVKKASNLHIGAPSRFSGSGSGTDFTLTISSPEPEDAATYYCLQSQTYPLTFGGGTKLGDQ
B3: Feline 15H05 1.1 FW1 (antibody, V domains shown)
VH: B1 VH
VL: B1 VL with N42K, I43V, V46L, N49Y, P60S, H70D, T76S, Q79E, I83A, N107K
B4: Feline 15H05 VH2 mouse VL (antibody, V domains shown)
VH: B1 VH with S28G, L37V, A40S
VL: B1 VL
B5: Feline 15H05 1.1 FW1_3 (antibody, V domains shown)
VH: B1 VH
VL: B1 VL with N42K, I43V, V46L, N49Y, N107K
B6: Feline 15H05 1.1 FW2_3 (antibody, V domains shown)
VH: B1 VH
VL: B1 VL with D1E, N5T, L15P, T18R, I19V, V21I, N107K
B7: Feline 15H05 1.2 (antibody, V domains shown)
VH: B1 VH
VL: EITMTQSPGSLAGSPGQQVTMNCRASQGISIWLSWYQQKPGQHPKLLIYKASNLHIGVPDRFSGSGSGTDFTLTISNLQAEDVASYYCLQSQTYPLTFGGGTKLEIK
B8: Feline 15H05_VH3 mouse VL (antibody, V domains shown)
VH: B1 VH with T13K, A42E
VL: B1 VL
B9: Feline 15H05 1.1 FW2 (antibody, V domains shown)
VH: B1 VH
VL: EIQMTQSPSSLSASPGDRVTITCRASQGISIWLSWYQQKPGNIPKVLINKASNLHIGVPSRFSGSGSGTDFTLTISSLEPEDAATYYCLQSQTYPLTFGGGTKLEIK
B10: Feline 15H05 1.1 FW3 (antibody, V domains shown)
VH: B1 VH
VL: B9 VL with N42K, I43V, V46L, N49Y, S60P, D70H, S76T, E79Q, A83I
B11: Feline 15H05 1.1 (antibody, V domains shown)
VH: B1 VH
VL: B9 VL with N42K, I43V, V46L, N49Y
B12: Feline 15H05 1.1_FW1_2 (antibody, V domains shown)
VH: B1 VH
VL: B1 VL with P60S, H70D, T76S, Q79E, I83A, N107K
B13: Feline 11E12 1.1 K46Q (antibody, V domains shown)
VH: QVLLVQSGAEVKKPGASVKIFCKASGYSFTYYDINWLRQAPEQGLEWMGWIFPGDGGTKYNETFKGRLTLTADTSTNTVYMELSSLRSADTAMYYCARGGTSVIRDAMDYWGQGALVTVSS
VL: EIQMTQSPSSLSASPGDRVTITCRASESVDNYGISFMHWYQQKPGQVPKLLIYRASNLESGVPSRFSGSGSGTDFTLTISSLEPEDAATYYCQQSNKDPLTFGQGT
B14: Feline 15H05 3.3 (antibody, V domains shown)
VH: B1 VH with T13K, A42E
VL: B2 VL
B15: Feline 15H05 1.1 K42N (antibody, V domains shown)
VH: B1 VH
VL: B9 VL with I43V, V46L, N49Y
B16: Feline 15H05 1.1 Y49N (antibody, V domains shown)
VH: B1 VH
VL: B9 VL with N42K, I43V, V46L
B17: Feline 15H05 1.1 V43I (antibody, V domains shown)
VH: B1 VH
VL: B9 VL with N42K, V46L, N49Y
B18: Feline 15H05 1.1 L46V (antibody, V domains shown)
VH: B1 VH
VL: B9 VL with N42K, I43V, N49Y
B19: Feline 15H05 1.1 K42N_V43I (antibody, V domains shown)
VH: B1 VH
VL: B9 VL with V46L, N49Y
B20: Feline 15H05 2.3 (antibody, V domains shown)
VH: B1 VH with S28G, L37V, A40S
VL: B2 VL
B21: ZTS-361 (antibody)
heavy: QVLLVQSGAEVRTPGASVKIFCKASGYSFTSYTIHWLRQAPAQGLEWMGNINPTSGYTENNQRFKDRLTLTADTSTNTAYMELSSLRSADTAMYYCARWGFKYDGEWSFDVWGAGTTVTVSSASTTAPSVFPLAPSCGTTSGATVALACLVLGYFPEPVTVSWNSGALTSGVHTFPAVLQASGLYSLSSMVTVPSSRWLSDTFTCNVAHPPSNTKVDKTVRKTDHPPGPKPCDCPKCPPPEAAGAPSIFIFPPKPKDTLSISRTPEVTCLVVDLGPDDSDVQITWFVDNTQVYTAKTSPREEQFNSTYRVVSVLPILHQDWLKGKEFKCKVNSKSLPSPIERTISKAKGQPHEPQVYVLPPAQEELSRNKVSVTCLIKSFHPPDIAVEWEITGQPEPENNYRTTPPQLDSDGTYFVYSKLSVDRSHWQRGNTYTCSVSHEALHSHHTQKSLTQSPGK
light: EIQMTQSPSSLSASPGDRVTITCRASQGISIWLSWYQQKPGNIPKVLINKASNLHIGVPSRFSGSGSGTDFTLTISSLEPEDAATYYCLQSQTYPLTFGGGTKLEIKRSDAQPSVFLFQPSLDELHTGSASIVCILNDFYPKEVNVKWKVDGVVQNKGIQESTTEQNSKDSTYSLSSTLTMSSTEYQSHEKFSCEVTHKSLASTLVKSFQRSECQRE

This passage reports Kd, koff and kon results from patent US20190282704A1.

Changes are numbered by the printed parent chain. Names and notes keep the numbering of the source.

wildtype feline IL-31 (Feline_IL31_wildtype) (feline), sequence (chain, as listed by the source limits assumed, form in doubt): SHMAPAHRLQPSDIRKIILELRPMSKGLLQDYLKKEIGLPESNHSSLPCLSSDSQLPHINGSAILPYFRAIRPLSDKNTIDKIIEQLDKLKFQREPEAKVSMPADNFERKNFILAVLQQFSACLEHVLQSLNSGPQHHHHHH

The target in one assay is canine IL-31 (Canine_IL31) (canine). Description: SPR (Biacore), immobilised IL-31, 1:1 fit. On the technique in general: Surface plasmon resonance follows binding to a sensor surface in real time, without labels.
canine IL-31 (Canine_IL31) (canine), sequence (chain, as listed by the source limits assumed, form in doubt): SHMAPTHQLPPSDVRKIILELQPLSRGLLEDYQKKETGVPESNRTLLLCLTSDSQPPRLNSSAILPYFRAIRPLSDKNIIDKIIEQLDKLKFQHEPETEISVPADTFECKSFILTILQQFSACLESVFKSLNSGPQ
With B1, the Kd (usually the concentration at which binding is half-saturated) came to 0.00246 nM; the koff (as a rule, the rate constant with which the complex falls apart) was 2.66e-07 s⁻¹; the kon – broadly, the second-order rate constant of association – was determined as 108000 M⁻¹ s⁻¹.

The molecule B2 returned a Kd of 6.38 nM, a koff of 0.00019 s⁻¹ and a kon of 29700 M⁻¹ s⁻¹.

As to B3, the Kd worked out at 813 nM, the koff was 0.0156 s⁻¹ and the kon was found to be 19200 M⁻¹ s⁻¹.

B4 showed a Kd of 2.22 nM, a koff of 0.000379 s⁻¹ and a kon of 171000 M⁻¹ s⁻¹.

For the molecule B5, the Kd is 0.00436 nM, the koff stood at 2.88e-08 s⁻¹ and the kon is 6590 M⁻¹ s⁻¹.

Regarding B6, the Kd came to 214 nM, the koff turned out to be 0.00193 s⁻¹ and the kon was determined as 9050 M⁻¹ s⁻¹.

In the case of B7, the Kd was found to be 3.48 nM, the off-rate constant (koff) came out at 0.000115 s⁻¹ and the kon worked out at 33000 M⁻¹ s⁻¹.

Molecule B8 showed a Kd of 0.00264 nM, a koff of 2.64e-07 s⁻¹ and a kon of 100000 M⁻¹ s⁻¹.

B9 registered a Kd of 0.000431 nM, a koff of 1.66e-07 s⁻¹ and a kon of 384000 M⁻¹ s⁻¹.

Molecule B10 yielded a Kd of 0.13 nM, a koff of 3.91e-07 s⁻¹ and a kon of 3000 M⁻¹ s⁻¹.

B11 returned a Kd of 0.00504 nM, a koff of 1.36e-07 s⁻¹ and a kon of 27000 M⁻¹ s⁻¹.

B12 yielded a Kd of 0.263 nM, a koff of 3.82e-06 s⁻¹ and a kon of 6910 M⁻¹ s⁻¹.

B13 had a Kd of 1.91 nM, a koff of 8.85e-05 s⁻¹ and a kon of 46400 M⁻¹ s⁻¹.

Another assay addresses wildtype feline IL-31 (Feline_IL31_wildtype) (feline). Description: SPR (Biacore), immobilised IL-31, 1:1 fit.
As to B1, the Kd came out at 0.168 nM, the koff turned out to be 2.2e-05 s⁻¹ and the kon came to 131000 M⁻¹ s⁻¹.

Turning to B2, the Kd is 86.4 nM, the koff was 0.00328 s⁻¹ and the kon was 38000 M⁻¹ s⁻¹.

Molecule B3 showed a Kd of 564 nM, a koff of 0.00286 s⁻¹ and a kon of 5060 M⁻¹ s⁻¹.

B4 displayed a Kd of 1.61 nM, a koff of 5.47e-05 s⁻¹ and a kon of 34000 M⁻¹ s⁻¹.

With B5, the Kd came out at 0.0674 nM, the koff came out at 3.02e-05 s⁻¹ and the kon stood at 448000 M⁻¹ s⁻¹.

On to B6, for which the Kd was determined as 123 nM, the koff amounted to 0.00116 s⁻¹ and the kon stood at 9490 M⁻¹ s⁻¹.

Molecule B14 showed a Kd of 11.6 nM, a koff of 0.000886 s⁻¹ and a kon of 76300 M⁻¹ s⁻¹.

In the case of B7, the Kd worked out at 104 nM, the off-rate constant (koff) came out at 0.00147 s⁻¹ and the kon amounted to 14100 M⁻¹ s⁻¹.

Turning to B15, the Kd was determined as 6770 nM, the koff was 0.011 s⁻¹ and the kon came to 1630 M⁻¹ s⁻¹.

For B8, the Kd was 0.177 nM, the koff was 1.57e-05 s⁻¹ and the kon came to 88900 M⁻¹ s⁻¹.

On to B9, for which the Kd amounted to 0.065 nM, the koff was 2.49e-05 s⁻¹ and the kon turned out to be 383000 M⁻¹ s⁻¹.

Take B10: the Kd worked out at 0.0564 nM, the koff is 1.21e-05 s⁻¹ and the kon turned out to be 214000 M⁻¹ s⁻¹.

B16 registered a Kd of 39.5 nM, a koff of 0.00095 s⁻¹ and a kon of 24000 M⁻¹ s⁻¹.

In the case of B17, the Kd was determined as 13.6 nM, the koff was determined as 0.000401 s⁻¹ and the kon worked out at 29400 M⁻¹ s⁻¹.

B18 came in with a Kd of 22.8 nM, a koff of 0.000811 s⁻¹ and a kon of 35500 M⁻¹ s⁻¹.

The molecule B19 came in with a Kd of 9.42 nM, a koff of 0.0022 s⁻¹ and a kon of 234000 M⁻¹ s⁻¹.

Turning to B11, the equilibrium dissociation constant (Kd) came to 13.5 nM, the koff came to 0.00131 s⁻¹ and the kon was determined as 97100 M⁻¹ s⁻¹.

With B12, the Kd turned out to be 0.887 nM, the koff is 6.7e-06 s⁻¹ and the kon stood at 7560 M⁻¹ s⁻¹.

The molecule B20 showed a Kd of 1.57 nM, a koff of 0.000535 s⁻¹ and a kon of 341000 M⁻¹ s⁻¹.

Regarding B13, the Kd stood at 12.6 nM, the koff was 0.000145 s⁻¹ and the kon was 11500 M⁻¹ s⁻¹.

With B21, the Kd stood at 0.474 nM, the koff was 2.18e-05 s⁻¹ and the kon is 46000 M⁻¹ s⁻¹.
